Measured values taken from article PMC3406927.

Assays:
[1] = biological target: TLR5-N14VLR (zebrafish, Danio rerio | hagfish) (UniProt B3DIN1); assay: fluorescence polarisation
[2] = biological target: drTLR5-ECD (zebrafish, Danio rerio); assay: fluorescence polarisation

## CBLB502-ΔD0 (from UniProt Q06971 1-505) (ligand)
[1]
  fold change in binding affinity (against CBLB502): 2 to 3 fold
[2]
  fold change in binding affinity (against CBLB502): 2 to 3 fold
